Series [1] deals with the molecule itself. The series is described as follows: ESI-MS, declustering voltage 10 V. How it is done: A Waters Micromass ZMD quadrupole mass spectrometer was used for all experiments. The mass spectrometer was calibrated with cesium iodide. The temperature at the ion spray interface was kept at 40° C. A voltage of 2.0 kV at the tip of the inlet capillary needle was used to generate the electrospray. The cone voltage was set at 20 V and the extractor voltage was set at 10 V, resulting in a declustering voltage (ΔCS) of 10 V. Samples of protein were prepared in 10 mM ammonium acetate, pH 8.0, at concentrations of approximately 250 μM and were delivered at a flow rate of 50 μL/min into the ion source.
A 6× histidine tagged version of GB1 alone (lacking the Ymbs38 extension) was subjected to ESI-MS under the same conditions. […] Charged ions due to monomeric GB1 are shown labeled with the bolded numbers. The molecular mass derived from the +6 and +7 charge states is 8258 Da. (Calculated molecular mass of GB1 with the 6× histidine tag=8387 Da.).

The target in series [2] is T1, untagged Zn(II)GB1-Ymbs38 (6x histidine tag removed by thrombin) (streptococcal; E. hirae, UniProt P06654 228-282; Q47839 108-145, Zn(II) bound by the four cysteines of the Cys-x-Cys-xxxx-Cys-x-Cys site).
T1 construct: also called untagged GB1-Ymbs38; untagged wild-type Zn(II)GB1-Ymbs38; not shown: vector residues left after thrombin cleavage at Leu-Val-Pro-Arg-Gly-Ser
The series is described as follows: HIS-Select nickel affinity resin binding assay, SDS-PAGE. An excerpt:
Sigma® HlS-Select™ Nickel Affinity resin was used to assess dimerization between histidine-tagged and untagged proteins. Tagged and untagged versions of CopY were isolated as described above. The untagged version of GB1-Ymbs38 was isolated from the purified tagged protein by treatment with the Sigma® THROMBIN CleanCleave™ Kit. A thrombin cleavage site between the histidine tag and the start of the GB1-Ymbs38 protein allowed for easy removal of the tag. Dimerization reactions of tagged and untagged protein were performed in 50 mM Tris, pH 7.8, 300 mM NaCl. Approximately equilmolar amounts of each protein were mixed and incubated at 37° C. for 45 minutes to promote subunit interchange. The protein mixture was applied to 100 μL of drained HIS-Select resin that had been equilibrated in 50 mM Tris, pH 7.8, 300 mM NaCl in a Centricep spin column (Princeton Separations, Inc.) at room temperature. After 1 minute of constant agitation, the resin-protein mixture was centrifuged at 500×g for 30 seconds and the flow through was collected in a clean microfuge tube. The resin then was washed twice with 350 μL of 50 mM Tris, pH 7.8, 300 mM NaCl, and once with 50 mM Tris, pH 7.8, 300 mM NaCl, 20 mM imidazole. Each wash step was followed by centrifugation at 500×g for 30 seconds to remove excess liquid. […] Eluants were analyzed on 15% Tris-tricine SDS-PAGE stained with Coomassie brilliant blue R-250.

Series [3] concerns the molecule itself. The series is described as follows: large zone size exclusion chromatography, fit to monomer-dimer model, 4 °C. How it is done: The data points are the recorded experimental values of σw, at each loading concentration, and the solid line illustrates the best fit of the data to a monomer-dimer stoichiometric model. Non-linear least squares analysis was used to obtain the best fit according to the procedure. To verify that the data was fit to the appropriate stoichiometric model, a residual plot, which plots the difference between the observed fₘ and the calculated fₘ versus log [loaded protein], was prepared. The elution volume of each sample was converted to the weight average partition coefficient, which was plotted as a function of GB1-Ymbs38 concentration loaded onto the chromatography column. The Kd value was calculated from the best fit of the data to a monomer-dimer stoichiometric model, represented on the plot as a solid line. The plot shown corresponds to one of the three large zone chromatography trials performed on the apo-GB1-Ymbs38 protein variant.
The fitting of the data yielded the equilibrium association constants for each protein variant, which were subsequently converted to dissociation constants, Kd. Residual points were obtained by subtracting the fraction of monomer calculated by the best fit from the actual experimental value. Residuals were ploted against the log (loaded protein). […] Equilibrium association constants were used to calculate the Gibbs energy of assembly (ΔG°) through the equation: ΔG°=−RTlnKₐ₋Equilibrium association and dissociation constants, and the Gibbs free energy changes are shown in Table 6 for each GB1-Ymbs38 variant. A decrease in affinity between GB1-Ymbs38 monomers occurred upon mutation of the leucine and isoleucine residues or upon the removal of Zn(II), with the Zn(II) removal resulting in a larger decrease. The combination of Zn(II) removal and mutation of the aliphatic amino acids eliminated the ability of GB1-Ymbs38 monomer to self-associate.

Series [4] concerns the molecule itself. The series is described as follows: large zone size exclusion chromatography (Shodex KW 803), one trial dated 6/9/06; non-linear least squares fit of the fraction of monomer to a monomer-dimer model; cell H5 'Equilibrium constant'; sum of squares 0.025076973; no unit in the cell, loaded concentrations are in M and the text gives Ka in M^-1. How it is done:
A 5 mL aliquot of Zn(II)CopY was loaded onto a Shodex KW 803 column (total column volume is 15 mL) equilibrated in 50 mM Tris, pH 7.8, 150 mM NaCl, 0.05% β-mercaptoethanol. […] The measure of the apparent molecular weight of the protein at each concentration was calculated by correlating the elution volume of the leading edge with elution volumes of known molecular weight standards.
The plot of the change in apparent molecular weight versus the concentration of protein loaded onto the chromatography column provided an understanding of the process that occurred during the large zone chromatography experiment. The acquired data could be further manipulated in order to calculate the equilibrium dissociation constant for the GB1-Ymbs38 dimer. […] The data points are the recorded experimental values of σw, at each loading concentration, and the solid line illustrates the best fit of the data to a monomer-dimer stoichiometric model. […] To verify that the data was fit to the appropriate stoichiometric model, a residual plot, which plots the difference between the observed fₘ and the calculated fₘ versus log [loaded protein], was prepared. […] The Kd value was calculated from the best fit of the data to a monomer-dimer stoichiometric model, represented on the plot as a solid line.
(SEC sorts molecules by how far they enter the pores of the column.)

Series [5] concerns the molecule itself. The series is described as follows: large zone size exclusion chromatography, one of three trials; best fit of the weight average partition coefficient against log [loaded protein] to a monomer-dimer model; self-association. The protocol:
The measure of the apparent molecular weight of the protein at each concentration was calculated by correlating the elution volume of the leading edge with elution volumes of known molecular weight standards.
The plot of the change in apparent molecular weight versus the concentration of protein loaded onto the chromatography column provided an understanding of the process that occurred during the large zone chromatography experiment. The acquired data could be further manipulated in order to calculate the equilibrium dissociation constant for the GB1-Ymbs38 dimer. The elution volume, Vₑ, was converted to the weight average partition coefficient, σw, which represented the fraction of solvent volume within the gel matrix that was accessible to the protein. […] The data points are the recorded experimental values of σw, at each loading concentration, and the solid line illustrates the best fit of the data to a monomer-dimer stoichiometric model. Non-linear least squares analysis was used to obtain the best fit according to the procedure. To verify that the data was fit to the appropriate stoichiometric model, a residual plot, which plots the difference between the observed fₘ and the calculated fₘ versus log [loaded protein], was prepared. […] The Kd value was calculated from the best fit of the data to a monomer-dimer stoichiometric model, represented on the plot as a solid line. […]

Where no end group is shown, it is not given here.

The term Kd denotes the free concentration of one partner at which half of the binding sites on the other are occupied at equilibrium, for simple one-to-one binding.

B1: 6x histidine tagged GB1 (lacking the Ymbs38 extension) (other, streptococcal, UniProt P06654 228-282, looked up)
chain: TYKLILNGKTLKGETTTEAVDAATAEKVFKQYANDNGVDGEWTYDDATKTFTVTE
modifications: also: 6x histidine tag, place not given here
notes: Calculated mass with tag 8387 Da (8.4 kDa); Control without the CopY part; also called 6xhis tagged GB1; not shown: 6x histidine tag
For the molecule B1, the binding result in series [1] is given as “no binding (tested: approximately 250 µM)”; in series [2], “no binding”.

B2: 6x histidine tagged Zn(II)GB1-Ymbs38 fusion protein (other, streptococcal;E. hirae, UniProt P06654 228-282, looked up)
chain: TYKLILNGKTLKGETTTEAVDAATAEKVFKQYANDNGVDGEWTYDDATKTFTVTEATLTQEDIQQIMKQLNKKEPVETIECNCIPGQCECKKQ
modifications: Zn(II) bound by the four cysteines of the Cys-x-Cys-xxxx-Cys-x-Cys site
notes: Calculated monomer mass 12.8 kDa (tagged); also called 6hGB1-Ymbs38; native Zn(II)GB1-Ymbs38; not shown: N-terminal 6xHis tag and thrombin site (Leu-Val-Pro-Arg-Gly-Ser) from the pET-14b vector
Regarding B2, in series [3], the Ka was 37000 M⁻¹ and the dissociation constant Kd came out at 28 µM. For the same molecule, in series [4], the Ka was found to be 40200 M⁻¹.

B3: 6x histidine tagged apo (cysteine modified) GB1-Ymbs38 (other, streptococcal;E. hirae, UniProt P06654 228-282, looked up)
chain: B2 chain
modifications: Zn(II) removed (EDTA or acidification); the four cysteines of the metal binding motif carboxyamidomethylated with iodoacetamide
notes: Calculated mass of the carboxyamidomethylated protein 12,992 Da; also called apo-GB1-Ymbs38; Apo-GB1-Ymbs38; not shown: N-terminal 6xHis tag and thrombin site (Leu-Val-Pro-Arg-Gly-Ser) from the pET-14b vector
As for B3, the Ka in series [3] was found to be 10000 M⁻¹. Moreover, the values for the Kd in series [3] and in series [5] were 51 µM and 54 µM, respectively.

Values taken from US20090111968A1 (DUQUESNE UNIVERSITY OF THE HOLY GHOST, published 2009).
